Laboratory results from patent US20160200782A1 (MOERAE MATRIX, published 2016).

T1: Fms(Y969C)(h) (human, UniProt P07333 538-972, limits assumed)
T1 sequence (looked up): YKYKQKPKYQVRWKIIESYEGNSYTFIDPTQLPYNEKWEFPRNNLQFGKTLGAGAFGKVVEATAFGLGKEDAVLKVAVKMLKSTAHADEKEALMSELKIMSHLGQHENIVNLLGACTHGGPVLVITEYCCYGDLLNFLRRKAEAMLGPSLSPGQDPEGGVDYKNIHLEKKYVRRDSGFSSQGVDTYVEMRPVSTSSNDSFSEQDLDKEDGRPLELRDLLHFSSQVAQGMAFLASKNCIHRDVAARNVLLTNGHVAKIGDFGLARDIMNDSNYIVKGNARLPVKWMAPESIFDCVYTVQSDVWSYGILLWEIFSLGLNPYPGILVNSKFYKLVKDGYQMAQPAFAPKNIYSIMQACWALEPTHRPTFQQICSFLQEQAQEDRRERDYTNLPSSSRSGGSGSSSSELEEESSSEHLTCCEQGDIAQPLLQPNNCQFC

T2: NEK3(h) (human, UniProt P51956 1-506, limits assumed)
T2 sequence (looked up): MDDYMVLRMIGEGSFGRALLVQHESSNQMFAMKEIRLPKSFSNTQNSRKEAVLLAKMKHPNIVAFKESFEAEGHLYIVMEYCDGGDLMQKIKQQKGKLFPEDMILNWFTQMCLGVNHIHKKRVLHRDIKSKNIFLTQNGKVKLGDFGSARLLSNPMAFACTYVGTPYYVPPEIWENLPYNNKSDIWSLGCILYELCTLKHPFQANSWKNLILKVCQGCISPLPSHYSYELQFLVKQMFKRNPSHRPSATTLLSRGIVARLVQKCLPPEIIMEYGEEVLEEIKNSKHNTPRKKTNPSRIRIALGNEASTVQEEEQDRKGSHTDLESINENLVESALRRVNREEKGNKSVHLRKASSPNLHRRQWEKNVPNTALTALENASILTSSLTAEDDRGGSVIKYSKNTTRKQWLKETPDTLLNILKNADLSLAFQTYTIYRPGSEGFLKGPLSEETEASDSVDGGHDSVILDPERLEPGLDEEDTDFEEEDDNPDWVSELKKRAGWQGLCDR

T3: Txk(h) (human, UniProt P42681 1-527, limits assumed)
T3 sequence (looked up): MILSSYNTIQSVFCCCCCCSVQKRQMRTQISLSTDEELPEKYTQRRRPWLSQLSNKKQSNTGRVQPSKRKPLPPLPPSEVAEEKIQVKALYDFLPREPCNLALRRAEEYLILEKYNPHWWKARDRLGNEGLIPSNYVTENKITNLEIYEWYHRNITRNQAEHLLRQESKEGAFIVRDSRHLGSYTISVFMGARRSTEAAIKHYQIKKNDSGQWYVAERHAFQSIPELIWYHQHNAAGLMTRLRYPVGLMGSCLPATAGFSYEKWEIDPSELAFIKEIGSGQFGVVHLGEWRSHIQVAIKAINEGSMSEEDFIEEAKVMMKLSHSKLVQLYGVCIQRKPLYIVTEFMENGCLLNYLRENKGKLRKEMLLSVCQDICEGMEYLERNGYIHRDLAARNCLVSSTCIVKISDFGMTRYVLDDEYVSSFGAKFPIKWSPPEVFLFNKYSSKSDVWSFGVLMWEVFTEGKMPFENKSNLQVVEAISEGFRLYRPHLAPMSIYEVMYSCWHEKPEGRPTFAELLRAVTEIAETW

T4: EphA2(h) (human, UniProt P29317 559-976, limits assumed)
T4 sequence (looked up): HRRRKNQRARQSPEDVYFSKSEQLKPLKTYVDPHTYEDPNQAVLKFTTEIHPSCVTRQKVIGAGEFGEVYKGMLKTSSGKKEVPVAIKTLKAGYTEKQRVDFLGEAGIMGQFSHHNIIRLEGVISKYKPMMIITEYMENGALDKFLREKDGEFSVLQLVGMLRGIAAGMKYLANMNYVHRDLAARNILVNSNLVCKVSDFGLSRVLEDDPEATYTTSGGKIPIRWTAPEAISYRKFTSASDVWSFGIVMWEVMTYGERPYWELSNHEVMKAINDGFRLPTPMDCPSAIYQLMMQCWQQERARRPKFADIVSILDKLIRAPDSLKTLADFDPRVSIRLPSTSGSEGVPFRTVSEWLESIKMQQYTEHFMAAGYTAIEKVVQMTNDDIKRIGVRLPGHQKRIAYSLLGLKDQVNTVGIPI

B1: MMI-0300 (peptide)
peptide: FAKLAARLYRKALARQLGVAA
B2: MMI-0400 (peptide)
peptide: KAFAKLAARLYRKALARQLGVAA

Columns and labels:
Assay in all cases: cell-based or functional assay
Fms(Y969C)(h) = target: T1, Fms(Y969C)(h)
MSSK1(h) = MSSK1(h) (human, UniProt Q9UPE1 1-567, limits assumed)
Chain of MSSK1(h) (Q9UPE1 whole entry): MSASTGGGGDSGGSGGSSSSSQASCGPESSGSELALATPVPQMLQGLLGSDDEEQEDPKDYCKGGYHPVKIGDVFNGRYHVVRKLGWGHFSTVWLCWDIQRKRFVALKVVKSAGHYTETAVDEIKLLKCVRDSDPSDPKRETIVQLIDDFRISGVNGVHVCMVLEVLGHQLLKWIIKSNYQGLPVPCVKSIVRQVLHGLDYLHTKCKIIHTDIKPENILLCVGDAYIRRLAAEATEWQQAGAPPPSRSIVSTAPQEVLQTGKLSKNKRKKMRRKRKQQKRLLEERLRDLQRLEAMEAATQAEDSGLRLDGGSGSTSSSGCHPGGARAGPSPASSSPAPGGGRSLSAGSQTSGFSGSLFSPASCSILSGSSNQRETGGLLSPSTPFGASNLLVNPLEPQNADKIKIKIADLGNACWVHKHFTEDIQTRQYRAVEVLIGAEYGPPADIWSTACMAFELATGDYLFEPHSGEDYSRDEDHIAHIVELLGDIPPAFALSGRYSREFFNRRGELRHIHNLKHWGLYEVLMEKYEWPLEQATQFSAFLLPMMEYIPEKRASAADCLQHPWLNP

NEK3(h) = target: T2, NEK3(h)
PAK2(h) = PAK2(h) (human, UniProt Q13177 1-524, limits assumed)
Chain of PAK2(h) (Q13177 whole entry): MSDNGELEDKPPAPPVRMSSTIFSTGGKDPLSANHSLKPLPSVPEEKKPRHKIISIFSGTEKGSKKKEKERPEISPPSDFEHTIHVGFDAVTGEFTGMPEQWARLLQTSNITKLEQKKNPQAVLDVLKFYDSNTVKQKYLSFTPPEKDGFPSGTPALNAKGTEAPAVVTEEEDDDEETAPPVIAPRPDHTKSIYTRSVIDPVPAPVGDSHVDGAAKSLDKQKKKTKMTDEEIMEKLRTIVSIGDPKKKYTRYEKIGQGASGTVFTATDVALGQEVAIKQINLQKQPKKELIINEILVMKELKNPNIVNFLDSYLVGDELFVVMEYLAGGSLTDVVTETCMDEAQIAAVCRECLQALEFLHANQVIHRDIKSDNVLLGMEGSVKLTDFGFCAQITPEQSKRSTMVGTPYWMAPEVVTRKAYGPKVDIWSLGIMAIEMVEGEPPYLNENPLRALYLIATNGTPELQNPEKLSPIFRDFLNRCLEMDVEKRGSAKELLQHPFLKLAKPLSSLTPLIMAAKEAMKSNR

ASK1(h) = ASK1(h) (human, UniProt Q99683 649-946, limits assumed)
Chain of ASK1(h) (Q99683 649-946 limits assumed): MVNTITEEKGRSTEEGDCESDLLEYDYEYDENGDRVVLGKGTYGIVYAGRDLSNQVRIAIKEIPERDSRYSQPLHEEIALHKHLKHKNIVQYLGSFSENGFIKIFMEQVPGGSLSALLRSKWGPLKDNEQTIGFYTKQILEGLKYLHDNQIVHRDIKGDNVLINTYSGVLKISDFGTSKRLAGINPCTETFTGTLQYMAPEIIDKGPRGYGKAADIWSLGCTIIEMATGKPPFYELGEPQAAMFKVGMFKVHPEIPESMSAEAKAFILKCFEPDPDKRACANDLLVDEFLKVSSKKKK

Pim-2(h) = Pim-2(h) (human, UniProt Q9P1W9 1-311)
Chain of Pim-2(h) (Q9P1W9 whole entry): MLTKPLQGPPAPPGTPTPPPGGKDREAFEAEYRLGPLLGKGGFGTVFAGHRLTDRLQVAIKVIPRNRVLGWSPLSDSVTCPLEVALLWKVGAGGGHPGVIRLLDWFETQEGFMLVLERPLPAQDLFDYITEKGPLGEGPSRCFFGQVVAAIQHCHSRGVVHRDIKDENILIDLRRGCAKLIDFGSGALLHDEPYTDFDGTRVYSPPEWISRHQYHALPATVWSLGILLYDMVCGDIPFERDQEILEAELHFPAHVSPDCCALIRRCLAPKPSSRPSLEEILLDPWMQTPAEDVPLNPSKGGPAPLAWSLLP

PKCα(h) = PKCα(h) (human, UniProt P17252 1-672)
Rsk4(h) = Rsk4(h) (human, UniProt Q9UK32 1-745, limits assumed)
Chain of Rsk4(h) (Q9UK32 whole entry): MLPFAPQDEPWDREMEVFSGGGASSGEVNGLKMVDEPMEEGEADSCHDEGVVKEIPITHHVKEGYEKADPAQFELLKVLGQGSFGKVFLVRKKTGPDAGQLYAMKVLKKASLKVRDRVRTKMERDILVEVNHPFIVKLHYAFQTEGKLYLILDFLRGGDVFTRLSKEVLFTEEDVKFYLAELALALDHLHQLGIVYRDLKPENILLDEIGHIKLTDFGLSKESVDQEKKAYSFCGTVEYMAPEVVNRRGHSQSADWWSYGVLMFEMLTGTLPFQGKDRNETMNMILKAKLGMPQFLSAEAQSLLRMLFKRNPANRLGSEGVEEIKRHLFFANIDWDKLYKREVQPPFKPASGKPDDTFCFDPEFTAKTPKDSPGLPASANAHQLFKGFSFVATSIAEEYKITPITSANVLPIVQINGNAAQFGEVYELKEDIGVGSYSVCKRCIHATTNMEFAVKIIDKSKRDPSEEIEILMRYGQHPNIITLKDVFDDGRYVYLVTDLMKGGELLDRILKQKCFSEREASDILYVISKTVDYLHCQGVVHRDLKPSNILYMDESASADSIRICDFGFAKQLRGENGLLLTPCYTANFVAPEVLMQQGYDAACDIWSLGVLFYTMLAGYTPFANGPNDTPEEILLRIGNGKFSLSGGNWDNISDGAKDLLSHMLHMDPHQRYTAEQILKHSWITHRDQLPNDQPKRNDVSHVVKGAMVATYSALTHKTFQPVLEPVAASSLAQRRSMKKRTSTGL

SIK(h) = SIK(h) (human, UniProt P57059 1-783, limits assumed)
Chain of SIK(h) (P57059 whole entry): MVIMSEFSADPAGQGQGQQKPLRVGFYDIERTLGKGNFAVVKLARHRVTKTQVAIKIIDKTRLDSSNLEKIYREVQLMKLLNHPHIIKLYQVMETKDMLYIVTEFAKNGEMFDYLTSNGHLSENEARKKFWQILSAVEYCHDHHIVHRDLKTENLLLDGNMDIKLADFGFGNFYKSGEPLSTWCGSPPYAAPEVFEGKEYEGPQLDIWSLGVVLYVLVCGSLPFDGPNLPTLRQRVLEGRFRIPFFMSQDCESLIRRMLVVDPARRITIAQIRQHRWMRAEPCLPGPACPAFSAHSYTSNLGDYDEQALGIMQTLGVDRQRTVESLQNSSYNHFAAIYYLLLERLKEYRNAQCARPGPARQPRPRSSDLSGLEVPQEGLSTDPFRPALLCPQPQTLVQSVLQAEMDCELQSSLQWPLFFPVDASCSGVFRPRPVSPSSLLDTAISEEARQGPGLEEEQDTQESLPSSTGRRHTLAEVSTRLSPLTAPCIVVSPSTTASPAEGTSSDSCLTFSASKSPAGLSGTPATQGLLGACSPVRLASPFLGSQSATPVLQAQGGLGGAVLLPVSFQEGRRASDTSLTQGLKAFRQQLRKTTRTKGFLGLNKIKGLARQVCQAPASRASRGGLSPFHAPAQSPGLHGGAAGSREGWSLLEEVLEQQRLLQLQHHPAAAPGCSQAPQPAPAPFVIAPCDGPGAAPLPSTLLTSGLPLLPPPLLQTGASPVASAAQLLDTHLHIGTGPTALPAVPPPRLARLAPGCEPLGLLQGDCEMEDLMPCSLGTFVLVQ

Snk(h) = Snk(h) (human, UniProt Q9NYY3 1-685, limits assumed)
Chain of Snk(h) (Q9NYY3 whole entry): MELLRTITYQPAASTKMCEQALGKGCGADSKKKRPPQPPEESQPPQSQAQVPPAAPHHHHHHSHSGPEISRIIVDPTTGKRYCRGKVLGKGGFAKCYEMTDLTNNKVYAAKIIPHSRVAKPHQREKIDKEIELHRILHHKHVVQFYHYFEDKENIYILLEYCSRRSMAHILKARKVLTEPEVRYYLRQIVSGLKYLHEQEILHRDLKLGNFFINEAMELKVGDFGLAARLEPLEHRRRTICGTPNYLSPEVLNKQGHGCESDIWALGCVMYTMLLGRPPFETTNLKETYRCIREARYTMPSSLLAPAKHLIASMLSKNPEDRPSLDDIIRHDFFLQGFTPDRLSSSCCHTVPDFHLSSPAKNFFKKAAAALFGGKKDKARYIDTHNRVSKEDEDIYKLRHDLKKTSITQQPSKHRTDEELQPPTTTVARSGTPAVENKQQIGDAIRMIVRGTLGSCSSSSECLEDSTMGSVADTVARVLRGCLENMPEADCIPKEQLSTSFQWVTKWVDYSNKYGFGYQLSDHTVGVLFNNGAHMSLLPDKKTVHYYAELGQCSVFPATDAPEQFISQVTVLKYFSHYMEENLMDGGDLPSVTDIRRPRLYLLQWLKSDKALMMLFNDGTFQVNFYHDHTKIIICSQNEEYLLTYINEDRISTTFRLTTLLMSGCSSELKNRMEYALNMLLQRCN

SRPK1(h) = SRPK1(h) (human, UniProt Q96SB4 1-655, limits assumed)
Chain of SRPK1(h) (Q96SB4 whole entry): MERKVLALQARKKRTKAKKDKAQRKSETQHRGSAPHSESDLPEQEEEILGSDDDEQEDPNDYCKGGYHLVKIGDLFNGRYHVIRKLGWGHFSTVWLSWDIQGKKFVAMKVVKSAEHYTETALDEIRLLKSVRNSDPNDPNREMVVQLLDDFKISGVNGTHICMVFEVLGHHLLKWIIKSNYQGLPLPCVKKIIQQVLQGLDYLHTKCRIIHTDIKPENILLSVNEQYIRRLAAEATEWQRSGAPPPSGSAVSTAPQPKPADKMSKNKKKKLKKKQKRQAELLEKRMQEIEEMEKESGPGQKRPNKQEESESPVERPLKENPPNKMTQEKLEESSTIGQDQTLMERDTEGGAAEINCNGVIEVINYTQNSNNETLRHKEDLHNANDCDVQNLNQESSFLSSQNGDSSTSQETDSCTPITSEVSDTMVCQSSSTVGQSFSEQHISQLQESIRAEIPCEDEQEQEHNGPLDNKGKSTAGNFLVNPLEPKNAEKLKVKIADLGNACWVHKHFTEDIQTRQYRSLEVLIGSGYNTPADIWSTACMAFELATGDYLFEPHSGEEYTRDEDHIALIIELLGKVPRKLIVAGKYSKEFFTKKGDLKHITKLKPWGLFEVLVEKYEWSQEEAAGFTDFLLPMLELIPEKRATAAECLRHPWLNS

Txk(h) = target: T3, Txk(h)
EphA2(h) = target: T4, EphA2(h)
FGFR3(h) = FGFR3(h) (human, UniProt P22607 397-806)
Chain of FGFR3(h) (P22607 397-806 limits assumed): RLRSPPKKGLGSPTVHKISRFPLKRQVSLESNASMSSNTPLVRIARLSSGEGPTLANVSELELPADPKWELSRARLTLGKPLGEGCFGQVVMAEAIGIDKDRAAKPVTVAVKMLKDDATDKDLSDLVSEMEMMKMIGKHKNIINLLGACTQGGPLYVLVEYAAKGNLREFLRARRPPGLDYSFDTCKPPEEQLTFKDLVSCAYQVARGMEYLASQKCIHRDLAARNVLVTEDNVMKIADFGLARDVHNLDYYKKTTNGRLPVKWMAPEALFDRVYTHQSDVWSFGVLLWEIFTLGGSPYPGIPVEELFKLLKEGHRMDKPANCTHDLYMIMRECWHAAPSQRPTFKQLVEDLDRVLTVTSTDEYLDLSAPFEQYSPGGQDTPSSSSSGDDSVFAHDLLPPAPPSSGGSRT

Fgr(h) = Fgr(h) (human, UniProt P09769 1-529, limits assumed)

| Binder | % activity (Fms(Y969C)(h)) [%] | % activity (MSSK1(h)) [%] | % activity (NEK3(h)) [%] | % activity (PAK2(h)) [%] | % activity (ASK1(h)) [%] | % activity (Pim-2(h)) [%] | % activity (PKCα(h)) [%] | % activity (Rsk4(h)) [%] | % activity (SIK(h)) [%] | % activity (Snk(h)) [%] | % activity (SRPK1(h)) [%] | % activity (Txk(h)) [%] | % activity (EphA2(h)) [%] | % activity (FGFR3(h)) [%] | % activity (Fgr(h)) [%] |
| --- | --- | --- | --- | --- | --- | --- | --- | --- | --- | --- | --- | --- | --- | --- | --- |
| B1 | 72 | 77 | 92 | 65 | 80 | 76 | 89 | 90 | 66 | 114 | 90 | 48 | 31 | 102 | 60 |
| B2 | 91 | 75 | 85 | 59 | 69 | 92 | 86 | 91 | 68 | 131 | 96 | 37 | 17 | 0 | 47 |
